The text below walks through data of IntAct's records for PubMed 20224574.

To fix the notation:
B1: Nibrin (Homo sapiens), O60934 (parent)
chain: MWKLLPAAGPAGGEPYRLLTGVEYVVGRKNCAILIENDQSISRNHAVLTANFSVTNLSQTDEIPVLTLKDNSKYGTFVNEEKMQNGFSRTLKSGDGITFGVFGSKFRIEYEPLVACSSCLDVSGKTALNQAILQLGGFTVNNWTEECTHLVMVSVKVTIKTICALICGRPIVKPEYFTEFLKAVESKKQPPQIESFYPPLDEPSIGSKNVDLSGRQERKQIFKGKTFIFLNAKQHKKLSSAVVFGGGEARLITEENEEEHNFFLAPGTCVVDTGITNSQTLIPDCQKKWIQSIMDMLQRQGLRPIPEAEIGLAVIFMTTKNYCDPQGHPSTGLKTTTPGPSLSQGVSVDEKLMPSAPVNTTTYVADTESEQADTWDLSERPKEIKVSKMEQKFRMLSQDAPTVKESCKTSSNNNSMVSNTLAKMRIPNYQLSPTKLPSINKSKDRASQQQQTNSIRNYFQPSTKKRERDEENQEMSSCKSARIETSCSLLEQTQPATPSLWKNKEQHLSENEPVDTNSDNNLFTDTDLKSIVKNSASKSHAAEKLRSNKKREMDDVAIEDEVLEQLFKDTKPELEIDVKVQKQEEDVNVRKRPRMDIETNDTFSDEAVPESSKISQENEIGKKRELKEDSLWSAKEISNNDKLQDDSEMLPKKLLLTEFRSLVIKNSTSRNPSGINDDYGQLKNFKKFKKVTYPGAGKLPHIIGGSDLIAHHARKNTELEEWLRQEMEVQNQHAKEESLADDLFRYNPYLKRRR

Holding throughout (settings): with mdc1_human MDC1, Q14676
In experiment [1] the parent is B1.
The variants in experiment [2] derive from B1. This is another data set of the same source.
Variants of B1 are the subject of experiment [3]. The source holds these as a separate data set.

mdc1_human MDC1, Q14676, sequence (Q14676 whole entry): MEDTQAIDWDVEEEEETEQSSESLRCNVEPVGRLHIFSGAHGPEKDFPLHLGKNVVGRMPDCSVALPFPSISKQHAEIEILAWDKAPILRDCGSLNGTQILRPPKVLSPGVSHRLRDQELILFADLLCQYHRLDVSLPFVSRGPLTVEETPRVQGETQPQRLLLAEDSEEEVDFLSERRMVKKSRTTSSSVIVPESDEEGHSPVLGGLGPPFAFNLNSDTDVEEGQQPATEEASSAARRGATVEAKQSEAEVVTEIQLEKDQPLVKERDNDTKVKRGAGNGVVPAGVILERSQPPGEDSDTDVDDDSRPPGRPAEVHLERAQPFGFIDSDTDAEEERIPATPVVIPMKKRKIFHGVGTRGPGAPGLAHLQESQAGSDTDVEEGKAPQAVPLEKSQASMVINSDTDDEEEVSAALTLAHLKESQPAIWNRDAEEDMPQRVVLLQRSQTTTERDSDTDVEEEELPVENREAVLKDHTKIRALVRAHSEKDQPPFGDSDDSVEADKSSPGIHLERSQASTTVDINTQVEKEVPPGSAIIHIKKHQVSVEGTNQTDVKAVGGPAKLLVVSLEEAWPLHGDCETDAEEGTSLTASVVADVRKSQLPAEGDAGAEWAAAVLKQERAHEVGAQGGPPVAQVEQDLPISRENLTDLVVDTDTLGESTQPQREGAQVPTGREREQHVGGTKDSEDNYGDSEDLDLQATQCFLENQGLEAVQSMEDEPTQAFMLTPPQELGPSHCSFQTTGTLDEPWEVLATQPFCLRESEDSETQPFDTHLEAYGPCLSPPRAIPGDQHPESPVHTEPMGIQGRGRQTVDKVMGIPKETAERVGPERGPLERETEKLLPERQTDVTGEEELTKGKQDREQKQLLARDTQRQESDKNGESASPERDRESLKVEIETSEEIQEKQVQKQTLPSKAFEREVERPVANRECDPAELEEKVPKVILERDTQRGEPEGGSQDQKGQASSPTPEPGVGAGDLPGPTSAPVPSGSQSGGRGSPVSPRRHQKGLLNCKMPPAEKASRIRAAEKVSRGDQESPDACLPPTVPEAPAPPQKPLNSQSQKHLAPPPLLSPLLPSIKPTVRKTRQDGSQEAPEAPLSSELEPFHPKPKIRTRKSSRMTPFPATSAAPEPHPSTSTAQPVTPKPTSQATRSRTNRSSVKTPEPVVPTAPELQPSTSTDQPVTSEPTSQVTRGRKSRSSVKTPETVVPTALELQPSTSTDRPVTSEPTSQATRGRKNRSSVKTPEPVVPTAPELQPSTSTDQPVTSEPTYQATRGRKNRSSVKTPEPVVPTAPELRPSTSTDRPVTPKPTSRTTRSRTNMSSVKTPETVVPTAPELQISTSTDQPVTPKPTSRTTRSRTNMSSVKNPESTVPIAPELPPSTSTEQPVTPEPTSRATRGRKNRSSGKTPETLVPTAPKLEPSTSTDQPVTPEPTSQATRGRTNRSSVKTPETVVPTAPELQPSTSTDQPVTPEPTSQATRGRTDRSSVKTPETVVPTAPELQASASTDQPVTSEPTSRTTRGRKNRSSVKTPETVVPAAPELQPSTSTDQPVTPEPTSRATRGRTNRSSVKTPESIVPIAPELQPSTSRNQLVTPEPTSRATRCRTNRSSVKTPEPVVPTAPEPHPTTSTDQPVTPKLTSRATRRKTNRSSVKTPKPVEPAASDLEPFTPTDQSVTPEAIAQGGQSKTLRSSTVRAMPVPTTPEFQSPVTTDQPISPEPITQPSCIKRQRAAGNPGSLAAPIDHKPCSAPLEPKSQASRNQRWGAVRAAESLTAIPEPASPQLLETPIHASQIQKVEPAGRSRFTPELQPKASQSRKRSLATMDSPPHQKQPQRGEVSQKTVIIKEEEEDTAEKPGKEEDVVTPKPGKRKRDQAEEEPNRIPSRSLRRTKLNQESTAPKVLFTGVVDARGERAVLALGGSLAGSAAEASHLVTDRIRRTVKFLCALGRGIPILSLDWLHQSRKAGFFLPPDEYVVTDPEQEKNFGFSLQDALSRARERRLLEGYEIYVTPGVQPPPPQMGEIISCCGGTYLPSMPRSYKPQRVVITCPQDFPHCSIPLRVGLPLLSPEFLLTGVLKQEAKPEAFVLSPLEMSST

Regarding R28A, the “effect of a mutation on the interaction” value in experiment [1] was “decreasing interaction”; in experiment [2], “disrupting interaction”.
For K160M, the “effect of a mutation on the interaction” value in experiment [3] is recorded as “decreasing interaction”; in experiment [2], “disrupting interaction”.
